Results: article PMC11686378, “Communication between DNA polymerases and Replication Protein A within the archaeal replisome” (Nature Communications, 2024)

B1: DNA primase PriSL (PriS-PriL heterodimer) from P. abyssi, in solution (complex, Pyrococcus abyssi)
chain 1: MLLREVTKEERKEFYSNEWNAKQIPDFILQNLDKREFGFDHTGEGPSDRKNSYTDVRDLEDYIKATAPYAVYSSVAFYEKPQEMEGWLGAELVFDIDAKDLPLRRCNHEPGKVCPICLNDAKEIARDTLIVLKEELGFEDVHVVYSGRGYHIRVMDGWALSLDSKSRERILSFISASEIEDHSEFRKMLLERRGWFVLNHGYPRVFRLRFGYFILRVKVEHLINFGIRKNIAKRILDNKETIYEEFVRKGILAAFPDGVGIESLAKLFALSTRFSKAYFDGRVTVDLKRILRLPSTLHSKVGLIAKYIGNNERDVMRFNPFKHAVPKFRRKEVKEEYKRFLEENF
chain 2: MLDPFSEKAKELLKEFGSINDFLNSIPRIVDVEEVIERVKIASDRKLLEGFVDIEDIKDLAQFYALLGALSYSPYGLELELVKKANILLYSERIRREKEIRPEEISLRINKAIEFPIDDLKKIERVFGKLPEYTIHLAEFLDLIPGERLSEYYIYNGNVYLRKEDLIKVWMKAFERNIEKSVNMLYEIRDELPGFFREVLGGIKEVAEQEFGKSGEVKAGTLRPDLFPPCVKNALKGVPQGLRNYAITVLLTSFLSYARICPNPPRRNVRVKDCIDDIRIITDEILPLIIEAANRCSPPLFEDQPNEIKNIWYHLGFGYTANPKLEDSGNSTWYFPPNCDKIRANAPQLCTPDKHCKYVRNPLTYYLRRLYLEGRKNASKGGNERGEKRVLQQ
notes: PriS, catalytic small subunit of the DNA primase, Pyrococcus abyssi; PriL, large subunit of the DNA primase, Pyrococcus abyssi, with its C-terminal 4Fe-4S domain; Analyte in BLI on His-Rpa2^WH and on RPA-ssDNA filaments; also called full-length PriSL; source: E. coli BL21 Star (DE3), polycistronic PriS-PriL, purified (heat 60 °C, HisTrap, heparin, SEC)
B2: Histidine-tagged Rpa2^WH (Rpa2 residues 178-268), C-terminal winged-helix domain of P. abyssi Rpa2 (domain or fragment)
chain: MGKHHHHSGHHHTGHHHHSGSHHHTSSSASTGENLYFQGTGGIMMEERSIEEPMEELLEEEIPEEKEENELLEKAKEDILNILRQKRTAISRKYILKKLGDKYDEETIDDAITELLAQGEIYEPETGYYKLL

Experiments:
Details in all cases: both partners purified
[1] = molecular target: T1, RPA^ΔWH (Rpa1/Rpa2(1-179)/Rpa3), RPA lacking the winged-helix domain of Rpa2 (Pyrococcus abyssi); assay: BLI; RPA or RPA^ΔWH nucleoprotein filaments on a 3'-TEG-biotin 50-nt ssDNA held on streptavidin sensors; PriSL (1.56-100 nM) or PolD (15.62-1000 nM) in solution; steady-state analysis; 25 °C, buffer E with 0.2 mg/ml BSA
T1 chain 1: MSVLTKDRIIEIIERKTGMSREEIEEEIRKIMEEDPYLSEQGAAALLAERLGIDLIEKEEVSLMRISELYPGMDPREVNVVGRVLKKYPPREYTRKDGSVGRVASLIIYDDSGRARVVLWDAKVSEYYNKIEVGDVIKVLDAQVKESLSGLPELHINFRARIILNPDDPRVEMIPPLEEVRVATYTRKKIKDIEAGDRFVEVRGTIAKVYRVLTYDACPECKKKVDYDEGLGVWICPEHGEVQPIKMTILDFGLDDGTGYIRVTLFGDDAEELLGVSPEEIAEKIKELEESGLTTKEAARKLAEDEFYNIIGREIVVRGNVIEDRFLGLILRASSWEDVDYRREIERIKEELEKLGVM
T1 chain 2: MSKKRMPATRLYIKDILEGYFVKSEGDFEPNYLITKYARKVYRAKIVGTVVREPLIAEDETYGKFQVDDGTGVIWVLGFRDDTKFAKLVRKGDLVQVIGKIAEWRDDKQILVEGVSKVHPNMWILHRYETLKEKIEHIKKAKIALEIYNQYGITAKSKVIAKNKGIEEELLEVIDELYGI
T1 chain 3: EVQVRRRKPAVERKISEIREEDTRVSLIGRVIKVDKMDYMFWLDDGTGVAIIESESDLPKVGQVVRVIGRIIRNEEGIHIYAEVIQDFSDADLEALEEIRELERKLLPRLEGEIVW

[2] = molecular target: T2, Replicative DNA polymerase PolD (DP1-DP2 heterodimer) from P. abyssi, in solution (Pyrococcus abyssi); assay: BLI; histidine-tagged Rpa2^WH captured on Ni-NTA sensors; PriSL (7.81-500 nM) or PolD (15.62-1000 nM) in solution; steady-state analysis; 25 °C, buffer E with 0.2 mg/ml BSA
T2 construct: DP1, proofreading small subunit of DNA polymerase D, Pyrococcus abyssi; DP2, polymerization large subunit of DNA polymerase D, Pyrococcus abyssi; also called unlabeled PolD; source: E. coli BL21 Star (DE3), purified (heat 60 °C, HisTrap, heparin, SEC)

[3] = molecular target: B1; assay: as above

| Binder | fold weaker interaction than with wild-type RPA filaments (at 12.5 nM PriSL) [1] [fold] | Kd [2] [nM] | Kd [3] [nM] |
| --- | --- | --- | --- |
| B1 | 7 | – | – |
| B2 | – | 98 ± 49 | 25 ± 9 |
